Test results published in paper PMC4739419, “Mutations in the nucleotide binding and hydrolysis domains of Helicobacter pylori MutS2 lead to altered biochemical activities and inactivation of its in vivo function” (BMC Microbiology, 2016).

Legend:
[1] = ATPase assay of HpMutS2 and mutants (TLC, ATP [γ-32P] tracer); format: biochemical; details: for kcat value, fold reduced compared to the wild-type protein / V max / k cat: ATP hydrolysis; for V max / k cat: Mg2+ 5 mM, 37 °C, Michaelis-Menten analysis; for Km value, fold higher compared to the wild-type protein: for ATP; for effect of DNA on ATPase activity: 1 μM
Text: Fig. 1 a Schematic representation of HpMutS2 variants used in this study. Walker-A and Walker-B motifs of HpMutS2 were identified by multiple sequence alignment of MutS2 proteins from different bacteria using Clustal Omega (http://www.ebi.ac.uk/Tools/msa/clustalo/). The mutations in the walker-A and Walker-B motifs were introduced using site directed mutagenesis. The mutated amino acids are highlighted in red. All the proteins were C-terminally His6-tagged. The LDLK motif and Smr domain are conserved nuclease sites of HpMutS2. b Effect of DNA substrates on ATPase activity of HpMutS2. HpMutS2 (45 nM) was incubated with increasing concentrations of ATP [0, 10, 20, 40, 60, 80, 100, 200, 400, 600, 800, and 1000 (μM)]. DNA substrates (1 μM) were added separately to the reaction mixtures. After incubation at 37 °C for 30 min the reactions were stopped by EDTA (50 mM) and the products were separated by TLC. ATP [γ-^32P] was used as tracer to monitor the product formation. Reaction velocities were calculated by quantifying the proportion of products formed to un-reacted substrate divided by incubation time TEXT PRINTED IN THE PICTURE: (A) HpMutS2 (1-762): Mol. wt. (kDa): 87.8 | (A) HpMutS2-G338R (1-762): Mol. wt. (kDa): 87.9 | (A) HpMutS2-E413A (1-762): Mol. wt. (kDa): 87.7 | (A) HpMutS2ΔSmr (1-683): Mol. wt. (kDa): 79.3 | (A) HpMutS2ΔSmr-D30A (1-683): Mol. wt. (kDa): 79.2 | (A) HpSmr (684-762): Mol. wt. (kDa): 9.6
To delineate the characteristics of the ATPase activity of HpMutS2, we initially determined the metal ion requirement for ATP hydrolysis by HpMutS2. Purified HpMutS2 was incubated with excess of cold ATP (100 μM) with or without metal ions (5 mM each), and ATP hydrolysis monitored by thin layer chromatography using radiolabeled ATP [γ-^32P] as tracer. […] Based on the above observations, all subsequent ATPase assays were performed in presence of Mg^2+ (5 mM) at 37 °C using the protein concentrations in the linear range of enzymatic activity for 30 min or below.
ATPase activity of HpMutS2 and mutants was carried out in 10 μl of reaction volume containing 1X buffer A (50 mM Tris pH 8.0, 50 mM NaCl, and 1 mM DTT) containing MgCl2 (5 mM), and ATP [γ-^32P] was used as a tracer. A 1:1000 dilution of 25 μC ATP [γ-^32P] (3500 Ci/mmol) was used with indicated amount of the cold ATP in all the assays. All reactions were carried out at 37 °C for indicated time and terminated by the addition of EDTA (50 mM). 1 μl aliquot of each reaction mixture was spotted on a polyethylene cellulose TLC sheets. The reaction components [ATP and inorganic phosphate (Pi)] were separated by thin layer chromatography (TLC) using 0.4 M […] and 0.1 mM EDTA as mobile phase. The dried TLC sheets were visualized by phosphorimaging and quantified using Image Gauge (Version 3.0). The kinetic parameters were determined using the Michaelis–Menten equation by non-linear regression of plot of rate of product formation versus substrate concentration using GraphPad Prism 5 software. Reaction velocities were calculated by quantifying the proportion of products formed to un-reacted substrate divided by incubation time. To determine the effect of DNA on ATPase activity 1 μM of DNA substrates were added separately to the reaction mixture.

[2] = Far-UV circular dichroism spectroscopy; format: physicochemical; details: protein 1 μM, far-UV CD 200–300 nm
Method: Fig. 3 Mutation induced conformational changes in HpMutS2. a CD-spectroscopy of HpMutS2, HpMutS2-G338R, and HpMutS2-E413A. Far-UV CD spectra of proteins (1 μM) dialyzed in 50 mM Tris-Cl and 100 mM NaCl were recorded between 200–300 nm with 20 mdeg sensitivity at a scan speed of 50 nm using 2 mm path length cuvette with a bandwidth of 2 nm. The spectra were recorded using Jasco-815 spectropolarimeter. Size exclusion chromatographic analysis of b HpMutS2, c HpMutS2-G338R, and d HpMutS2-E413A was performed using Superose-6 gel filtration column at a constant flow rate of 0.3 ml/min. Approximately 150 μg of all the proteins were spun at 10,000 rpm for 10 min at 4 °C before injection. The absorbance was recorded at 280 nm
Freshly prepared proteins were dialyzed twice in buffer B for 4–6 h with at least two changes of the buffer. Far-UV CD spectra of proteins (1 μM) were obtained using a Jasco-815 spectropolarimeter equipped with a Peltier stage (Japan Spectroscopic Co., Japan) at 25 °C. The spectra were recorded between 200–300 nm with 20 mdeg sensitivity at a scan speed of 50 nm using 2 mm path length cuvette with a bandwidth of 2 nm. […] Thermal denaturation of the proteins was monitored at single wavelength (222 nm) by increasing temperature from 25 °C-80 °C. The percentage of unfolded protein was calculated by considering the protein at 25 °C as 100 % folded.

[3] = Thermal denaturation monitored by CD at 222 nm; format: physicochemical; details: for temperature of 50 % unfolding: 25–80 °C; for thermal stability compared to the other variants: higher temperatures
Method: (§1) Fig. 4 Nucleotide and mutation induced conformational changes in HpMutS2. a Limited proteolysis. Proteins (4 μM) either free or pre-incubated with nucleotides (1 mM) were incubated with chymotrypsin (1.25 ng) for 30 min at 37 °C. All proteolysis reactions were performed in 1X buffer A lacking magnesium. Reactions were stopped by adding a protease inhibitor cocktail and the products were separated on SDS-PAGE (10 %). Lane M: Molecular weight marker. b Thermal stability profiles of wild-type HpMutS2, HpMutS2-G338R, and HpMutS2-E413A. Proteins (1 μM) dialyzed in 50 mM Tris-Cl and 100 mM NaCl were subjected to thermal denaturation and spectra were recorded at 222 nm using Jasco-815 spectropolarimeter
Freshly prepared proteins were dialyzed twice in buffer B for 4–6 h with at least two changes of the buffer. Far-UV CD spectra of proteins (1 μM) were obtained using a Jasco-815 spectropolarimeter equipped with a Peltier stage (Japan Spectroscopic Co., Japan) at 25 °C. The spectra were recorded between 200–300 nm with 20 mdeg sensitivity at a scan speed of 50 nm using 2 mm path length cuvette with a bandwidth of 2 nm. Control titrations were performed and all the CD spectra were corrected by subtracting control spectra. Thermal denaturation of the proteins was monitored at single wavelength (222 nm) by increasing temperature from 25 °C-80 °C. The percentage of unfolded protein was calculated by considering the protein at 25 °C as 100 % folded.

[4] = system: chymotrypsin; assay: Limited proteolysis with chymotrypsin; details: 37 °C; for effect of nucleotide pre-incubation on proteolysis: pre-incubation with ADP, ATP or ATPγS 1 mM, 15 min; for susceptibility to proteolysis compared to the wild-type protein: protein 4 μM, chymotrypsin 1.25 ng, 30 min, no nucleotide
Method: as §1
HpMutS2 (4 μM) was incubated with chymotrypsin (1.25 ng) or in buffer A lacking magnesium at 37 °C for 30 min. The reactions were stopped by addition of protease inhibitor cocktail (Sigma) and the proteolyzed products were separated on SDS-PAGE (10 %). Nucleotide cofactors (1 mM) were pre-incubated with the proteins for 15 min at 37 °C before addition of chymotrypsin. The heat denaturation of proteins was performed by heating them at 95 °C for 10 min. All the reactions were performed in 1X buffer A. Protein bands were detected by staining with Coomassie Brilliant Blue.

[5] = comparison with literature value

B1: HpMutS2-E413A (enzyme)
chain: MSDAPKRSLNPTLMMNNNNTPPKPLEESLDLKEFIALFKTFFAKERDTIALENDLKQTFTYLNEVDAIGLPTPKSVKESDLIIIKLTKLGTLHLDEIFEIVKRLHYIVVLQNAFKTFTHLKFHERLNAIVLPPFFNDLIALFDDEGKIKQGANATLDALNESLNRLKKESVKIIHHYARSKELAPYLVDTQSHLKHGYECLLLKSGFSGAIKGVVLERSANGYFYLLPESAQKIAQKIAQIGNEIDCCIVEMCQTLSHSLQKHLLFLKFLFKEFDFLDSLQARLNFAKAYNLEFVMPSFTQKKMILENFSHPILKEPKPLNLKFEKSMLAVTGVNAGGKTMLLKSLLSAAFLSKHLIPMKINAHHSIIPYFKEIHAIINDPQNSANNISTFAGRMKQFSALLSKENMLLGVDAIELGTDADEASSLYKTLLEKLLKQNNQIIITTHHKRLSVLMAENKEVELLAALYDEEKERPTYTFLKGVIGKSYAFETALRYGVPHFLIEKAKTFYGEDKEKLNVLIENSSALERELKQKNEHLENALKEQEYLKNAWLLEMEKQKEIFHNKKLELEKSYQQALNILKSEVASKDTSSMHKEIHKASEILSKHKTNQEIPQIITNFQANEKARYKNESVLIVQILDKGYYWIETELGMRLKAHGSLLKKIQKPPKNKFKPPKTTIPKPKEASLRLDLRGQRSEEALDLLDAFLNDALLGGFEEVLICHGKGSGILEKFVKEFLKNHPKVVSFSDAPINLGGSGVKIVKL
notes: also called Walker-B mutant
For B1, the “kcat value, fold reduced compared to the wild-type protein” value [1] was ~ 10 fold, the V max [1] was 0.19 ± 0.03 µM/min and the k cat [1] was 4.22 ± 0.66 min⁻¹. The “Km value, fold higher compared to the wild-type protein” value [1] was “comparable”, the “reduced negative ellipticity compared to the wild-type protein” value [2] was 30–34% and the “temperature of 50 % unfolding” value [3] was ~ 50 °C. For the same molecule, the “thermal stability compared to the other variants” value [3] was “more unstable”, the “effect of nucleotide pre-incubation on proteolysis” value (from here on “effect of nucleotide pre-incubation”) [4] was “only a slight effect” and the “susceptibility to proteolysis compared to the wild-type protein” value [4] was “much more resistant”.

B2: HpMutS2: Helicobacter pylori MutS2 (1-762), C-terminally His6-tagged wild-type protein, nuclease and ABC ATPase (protein)
chain: MSDAPKRSLNPTLMMNNNNTPPKPLEESLDLKEFIALFKTFFAKERDTIALENDLKQTFTYLNEVDAIGLPTPKSVKESDLIIIKLTKLGTLHLDEIFEIVKRLHYIVVLQNAFKTFTHLKFHERLNAIVLPPFFNDLIALFDDEGKIKQGANATLDALNESLNRLKKESVKIIHHYARSKELAPYLVDTQSHLKHGYECLLLKSGFSGAIKGVVLERSANGYFYLLPESAQKIAQKIAQIGNEIDCCIVEMCQTLSHSLQKHLLFLKFLFKEFDFLDSLQARLNFAKAYNLEFVMPSFTQKKMILENFSHPILKEPKPLNLKFEKSMLAVTGVNAGGKTMLLKSLLSAAFLSKHLIPMKINAHHSIIPYFKEIHAIINDPQNSANNISTFAGRMKQFSALLSKENMLLGVDEIELGTDADEASSLYKTLLEKLLKQNNQIIITTHHKRLSVLMAENKEVELLAALYDEEKERPTYTFLKGVIGKSYAFETALRYGVPHFLIEKAKTFYGEDKEKLNVLIENSSALERELKQKNEHLENALKEQEYLKNAWLLEMEKQKEIFHNKKLELEKSYQQALNILKSEVASKDTSSMHKEIHKASEILSKHKTNQEIPQIITNFQANEKARYKNESVLIVQILDKGYYWIETELGMRLKAHGSLLKKIQKPPKNKFKPPKTTIPKPKEASLRLDLRGQRSEEALDLLDAFLNDALLGGFEEVLICHGKGSGILEKFVKEFLKNHPKVVSFSDAPINLGGSGVKIVKL
modifications: left off: His6, C-terminal, state not stated
notes: Helicobacter pylori MutS2 (1-762), C-terminally His6-tagged wild-type protein, nuclease and ABC ATPase
For B2, the “effect of DNA on ATPase activity” value ([1]; 3′- or 5′-overhangs) was “negligible increases”, the V max [1] was 1.88 ± 0.13 µM/min and the k cat [1] was 41.77 ± 2.88 min⁻¹. For the same molecule, the “Km value, fold higher compared to T. thermophilus MutS1” value [1, 5] was ~ 8 fold, the “Km value, fold higher compared to Thermus thermophilus MutS2 (TtMutS2)” value [1, 5] was ~ 9 fold and the “kcat value, fold higher compared to T. thermophilus MutS1” value [1, 5] was ~ 4.5 fold. For the same molecule, the “kcat value, fold higher compared to Thermus thermophilus MutS2 (TtMutS2)” value [1, 5] was ~ 20 fold, the “effect of DNA on ATPase activity” value ([1]; linear DNA substrates ssDNA, dsDNA) was “no effect” and the “temperature of 50 % unfolding” value [3] was ~ 50 °C. The “effect of nucleotide pre-incubation” value [4] was “proteolysis was significantly reduced”.

B3: HpMutS2-G338R (protein)
chain: MSDAPKRSLNPTLMMNNNNTPPKPLEESLDLKEFIALFKTFFAKERDTIALENDLKQTFTYLNEVDAIGLPTPKSVKESDLIIIKLTKLGTLHLDEIFEIVKRLHYIVVLQNAFKTFTHLKFHERLNAIVLPPFFNDLIALFDDEGKIKQGANATLDALNESLNRLKKESVKIIHHYARSKELAPYLVDTQSHLKHGYECLLLKSGFSGAIKGVVLERSANGYFYLLPESAQKIAQKIAQIGNEIDCCIVEMCQTLSHSLQKHLLFLKFLFKEFDFLDSLQARLNFAKAYNLEFVMPSFTQKKMILENFSHPILKEPKPLNLKFEKSMLAVTGVNAGRKTMLLKSLLSAAFLSKHLIPMKINAHHSIIPYFKEIHAIINDPQNSANNISTFAGRMKQFSALLSKENMLLGVDEIELGTDADEASSLYKTLLEKLLKQNNQIIITTHHKRLSVLMAENKEVELLAALYDEEKERPTYTFLKGVIGKSYAFETALRYGVPHFLIEKAKTFYGEDKEKLNVLIENSSALERELKQKNEHLENALKEQEYLKNAWLLEMEKQKEIFHNKKLELEKSYQQALNILKSEVASKDTSSMHKEIHKASEILSKHKTNQEIPQIITNFQANEKARYKNESVLIVQILDKGYYWIETELGMRLKAHGSLLKKIQKPPKNKFKPPKTTIPKPKEASLRLDLRGQRSEEALDLLDAFLNDALLGGFEEVLICHGKGSGILEKFVKEFLKNHPKVVSFSDAPINLGGSGVKIVKL
For B3, the “kcat value, fold reduced compared to the wild-type protein” value [1] was ~ 3 fold, the V max [1] was 0.64 ± 0.15 µM/min and the k cat [1] was 14.22 ± 3.33 min⁻¹. The “Km value, fold higher compared to the wild-type protein” value [1] was ~ 2.3 fold, the “reduced negative ellipticity compared to the wild-type protein” value [2] was “no significant changes” and the “thermal stability compared to the other variants” value [3] was “more stable at up to 80 °C”. For the same molecule, the “effect of nucleotide pre-incubation” value [4] was “only a slight effect” and the “susceptibility to proteolysis compared to the wild-type protein” value [4] was “slightly more susceptible to proteolysis”.
